Assay results as given in IntAct's records for PubMed 31515488.

B1: U3 small nucleolar RNA-associated protein 14 homolog A (Homo sapiens), Q9BVJ6 (parent)
chain: MTANRLAESLLALSQQEELADLPKDYLLSESEDEGDNDGERKHQKLLEAISSLDGKNRRKLAERSEASLKVSEFNVSSEGSGEKLVLADLLEPVKTSSSLATVKKQLSRVKSKKTVELPLNKEEIERIHREVAFNKTAQVLSKWDPVVLKNRQAEQLVFPLEKEEPAIAPIEHVLSGWKARTPLEQEIFNLLHKNKQPVTDPLLTPVEKASLRAMSLEEAKMRRAELQRARALQSYYEAKARREKKIKSKKYHKVVKKGKAKKALKEFEQLRKVNPAAALEELEKIEKARMMERMSLKHQNSGKWAKSKAIMAKYDLEARQAMQEQLSKNKELTQKLQVASESEEEEGGTEDVEELLVPDVVNEVQMNADGPNPWMLRSCTSDTKEAATQEDPEQLPELEAHGVSESEGEERPVAEEEILLREFEERRSLRKRSELSQDAEPAGSQETKDSGSQEVLSELRVLSQKLKENHQSRKQKASSEGTIPQVQREEPAPEEEEPLLLQRPERVQTLEELEELGKEECFQNKELPRPVLEGQQSERTPNNRPDAPKEKKKKEQMIDLQNLLTTQSPSVKSLAVPTIEELEDEEERNHRQMIKEAFAGDDVIRDFLKEKREAVEASKPKDVDLTLPGWGEWGGVGLKPSAKKRRRFLIKAPEGPPRKDKNLPNVIINEKRNIHAAAHQVRVLPYPFTHHWQFERTIQTPIGSTWNTQRAFQKLTTPKVVTKPGHIINPIKAEDVGYRSSSRSDLSVIQRNPKRITTRHKKQLKKCSVD
partner: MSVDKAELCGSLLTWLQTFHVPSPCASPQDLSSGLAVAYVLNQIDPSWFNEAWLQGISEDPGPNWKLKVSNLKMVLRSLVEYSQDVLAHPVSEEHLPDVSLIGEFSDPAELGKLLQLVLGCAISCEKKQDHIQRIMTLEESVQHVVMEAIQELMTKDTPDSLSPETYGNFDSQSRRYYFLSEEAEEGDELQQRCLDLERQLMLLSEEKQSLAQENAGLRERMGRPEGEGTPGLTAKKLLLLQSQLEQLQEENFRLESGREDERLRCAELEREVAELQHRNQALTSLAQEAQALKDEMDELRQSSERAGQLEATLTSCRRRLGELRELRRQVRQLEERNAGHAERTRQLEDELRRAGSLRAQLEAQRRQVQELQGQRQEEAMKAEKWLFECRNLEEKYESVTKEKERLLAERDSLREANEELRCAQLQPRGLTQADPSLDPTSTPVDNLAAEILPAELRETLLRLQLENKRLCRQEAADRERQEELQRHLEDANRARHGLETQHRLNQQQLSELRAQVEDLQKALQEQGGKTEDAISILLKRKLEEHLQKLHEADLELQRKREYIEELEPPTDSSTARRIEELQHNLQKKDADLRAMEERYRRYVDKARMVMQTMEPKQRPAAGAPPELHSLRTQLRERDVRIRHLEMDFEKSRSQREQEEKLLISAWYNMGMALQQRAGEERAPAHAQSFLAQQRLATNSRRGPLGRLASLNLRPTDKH
B2: Zinc finger protein 544 (Homo sapiens), Q6NX49 (parent)
chain: MEARSMLVPPQASVCFEDVAMAFTQEEWEQLDLAQRTLYREVTLETWEHIVSLGLFLSKSDVISQLEQEEDLCRAEQEAPRDWKATLEENRLNSEKDRAREELSHHVEVYRSGPEEPPSLVLGKVQDQSNQLREHQENSLRFMVLTSERLFAQREHCELELGGGYSLPSTLSLLPTTLPTSTGFPKPNSQVKELKQNSAFINHEKNGADGKHCESHQCARAFCQSIYLSKLGNVETGKKNPYEYIVSGDSLNYGSSLCFHGRTFSVKKSDDCKDYGNLFSHSVSLNEQKPVHFGKSQYECDECRETCSESLCLVQTERSGPGETPFRCEERCAAFPMASSFSDCNIIQTTEKPSVCNQCGKSFSCCKLIHQRTHTGEKPFECTQCGKSFSQSYDLVIHQRTHTGEKPYECDLCGKSFTQRSKLITHQRIHTGEKPYQCIECRKSFRWNSNLIVHQRIHTGEKPYECTHCGKSFSQSYELVTHKRTHTGEKPFKCTQCGKSFSQKYDLVVHQRTHTGEKPYECNLCGKSFSQSSKLITHQRIHTGEKPYQCIECGKSFRWNSNLVIHQRIHTGEKPYDCTHCGKSFSQSYQLVAHKRTHTGEKPYECNECGKAFNRSTQLIRHLQIHTGEKPYKCNQCNKAFARSSYLVMHQRTHTGEKPFECSQCGKAFSGSSNLLSHHRIHSGEKPYECSDCGKSFRQQSQLVVHRRTHTGEKP
partner: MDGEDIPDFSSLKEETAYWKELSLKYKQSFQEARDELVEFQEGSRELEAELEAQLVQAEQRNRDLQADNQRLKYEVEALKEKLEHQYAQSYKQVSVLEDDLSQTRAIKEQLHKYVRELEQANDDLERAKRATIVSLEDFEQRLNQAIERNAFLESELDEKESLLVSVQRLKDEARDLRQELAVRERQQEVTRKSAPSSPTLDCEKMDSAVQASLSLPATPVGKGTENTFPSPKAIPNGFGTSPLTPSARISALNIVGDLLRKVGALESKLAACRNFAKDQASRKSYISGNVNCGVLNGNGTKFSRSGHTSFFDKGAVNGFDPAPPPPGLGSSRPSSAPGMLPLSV
B3: Cyclin-D1-binding protein 1 (Homo sapiens), O95273 (parent)
chain: MASATAPAAAVPTLASPLEQLRHLAEELRLLLPRVRVGEAQETTEEFNREMFWRRLNEAAVTVSREATTLTIVFSQLPLPSPQETQKFCEQVHAAIKAFIAVYYLLPKDQGITLRKLVRGATLDIVDGMAQLMEVLSVTPTQSPENNDLISYNSVWVACQQMPQIPRDNKAAALLMLTKNVDFVKDAHEEMEQAVEECDPYSGLLNDTEENNSDNHNHEDDVLGFPSNQDLYWSEDDQELIIPCLALVRASKACLKKIRMLVAENGKKDQVAQLDDIVDISDEISPSVDDLALSIYPPMCHLTVRINSAKLVSVLKKALEITKASHVTPQPEDSWIPLLINAIDHCMNRIKELTQSELEL
partner: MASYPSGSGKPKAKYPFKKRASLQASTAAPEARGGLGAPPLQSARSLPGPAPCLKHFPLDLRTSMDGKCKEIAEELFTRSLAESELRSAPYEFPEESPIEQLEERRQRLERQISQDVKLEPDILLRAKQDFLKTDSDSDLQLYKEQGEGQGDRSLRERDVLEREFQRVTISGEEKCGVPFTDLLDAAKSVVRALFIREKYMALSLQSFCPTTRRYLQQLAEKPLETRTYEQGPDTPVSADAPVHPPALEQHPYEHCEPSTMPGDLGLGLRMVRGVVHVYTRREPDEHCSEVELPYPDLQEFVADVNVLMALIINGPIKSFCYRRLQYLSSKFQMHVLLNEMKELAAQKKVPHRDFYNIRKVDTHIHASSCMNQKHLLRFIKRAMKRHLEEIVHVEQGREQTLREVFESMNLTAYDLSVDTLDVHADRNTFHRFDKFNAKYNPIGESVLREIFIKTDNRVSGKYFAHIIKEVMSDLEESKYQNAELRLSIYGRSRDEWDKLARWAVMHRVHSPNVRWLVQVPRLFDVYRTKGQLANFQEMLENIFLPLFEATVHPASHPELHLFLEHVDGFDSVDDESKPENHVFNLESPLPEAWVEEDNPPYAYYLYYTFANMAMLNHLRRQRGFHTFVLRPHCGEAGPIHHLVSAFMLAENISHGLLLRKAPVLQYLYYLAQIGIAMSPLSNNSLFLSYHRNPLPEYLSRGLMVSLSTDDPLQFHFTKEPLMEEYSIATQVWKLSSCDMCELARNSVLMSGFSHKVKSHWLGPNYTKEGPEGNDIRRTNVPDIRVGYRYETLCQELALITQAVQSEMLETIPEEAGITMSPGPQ
B4: Elongin-A2 (Homo sapiens), Q8IYF1 (parent)
chain: MAAGSTTLHAVEKLQVRLATKTEPKKLEKYLQKLSALPMTADILAETGIRKTVKRLRKHQHVGDFARDLAARWKKLVLVDRNTRPGPQDPEESASRQRFGEALQDQEKAWGFPENATAPRSPSHSPEHRRTARRTPPGQQRPHPRSHSREPRAERKCPRIAPADSGRYRASPTRTAPLRMPEGPEPAAPGKQPGRGHTHAAQGGPLLCPGCQGQPQGKAVVSHSKGHKSSRQEKRPLCAQGDWHSPTLIREKSCGACLREETPRMPSWASARDRQPSDFKTDKEGGQAGSGQRVPALEEAPDSHQKRPQHSHSNKKRPSLDGRDPGNGTHGLSPEEKEQLSNDRETQEGKPPTAHLDRTSVSSLSEVEEVDMAEEFEQPTLSCEKYLTYDQLRKQKKKTGKSATTALGDKQRKANESKGTRESWDSAKKLPPVQESQSERLQAAGADSAGPKTVPSHVFSELWDLSEAWMQANYDPLSDSDSMTSQAKPEALSSPKFREEAAFPGRRVNAKMPVYSGSRPACQLQVPTLRQQCAQVLRNNPDALSDVGEVPYWVLEPVLEGWRPDQLYRRKKDNHALVRETDELRRNHCFQDFKEEKPQENKTWREQYLRLPDAPEQRLRVMTTNIRSARGNNPNGREAKMICFKSVAKTPYDTSRRQEKSAGDADPENGEIKPASKPAGSSHTPSSQSSSGGGRDSSSSILRWLPEKRANPCLSSSNEHAAPAAKTRKQAAKKVAPLMAKAIRDYKRRFSRR
partner: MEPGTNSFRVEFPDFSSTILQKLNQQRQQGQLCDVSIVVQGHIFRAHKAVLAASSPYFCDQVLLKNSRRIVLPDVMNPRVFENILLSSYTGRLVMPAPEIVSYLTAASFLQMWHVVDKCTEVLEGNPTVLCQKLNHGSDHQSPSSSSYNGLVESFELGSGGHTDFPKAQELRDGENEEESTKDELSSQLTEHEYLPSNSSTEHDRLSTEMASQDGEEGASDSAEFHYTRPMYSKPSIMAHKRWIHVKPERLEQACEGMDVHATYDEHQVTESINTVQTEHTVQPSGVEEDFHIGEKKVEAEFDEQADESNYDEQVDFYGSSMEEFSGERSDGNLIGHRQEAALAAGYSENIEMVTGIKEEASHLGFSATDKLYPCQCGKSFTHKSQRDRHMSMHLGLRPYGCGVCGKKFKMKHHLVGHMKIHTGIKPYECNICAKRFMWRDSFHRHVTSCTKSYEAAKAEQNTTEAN

Variants of: B1
Conditions: with hook2_human HOOK2, Q96ED9

effect of a mutation on the interaction	Variant
with no effect	V256M

Variants of: B2
Conditions: with ndel1_human NDEL1, Q9GZM8

effect of a mutation on the interaction	Variant
with no effect	K406M

Variants of: B3
Conditions: with ampd2_human AMPD2, Q01433

effect of a mutation on the interaction	Variant
disrupting interaction strength	I277T

Variants of: B4
Conditions: with zbt43_human ZBTB43, O43298

effect of a mutation on the interaction	Variant
disrupting interaction strength	C254F
with no effect	A446T
with no effect	G505R
